In publication PMC12140320, “MeCP2 Lactylation Protects against Ischemic Brain Injury by Transcriptionally Regulating Neuronal Apoptosis”:

Target: MeCP2 WT (human) (Homo sapiens, UniProt P51608 1-486)
Test: EMSA; 50-100 nM protein; EMSA: 10 mM HEPES pH 7.6, 50 mM KCl, 1 mM EDTA, 0.05% Triton X-100, 5% glycerol, 1 mM DTT; 50-100 nM protein, 2 nM biotin probe; room temperature 30 min; 6% native PAGE, 0.5x TBE, 4 C
Details: protein: recombinant; (Ni resin); label: biotin; blunt

Chain of MeCP2 WT (human) (P51608 whole entry): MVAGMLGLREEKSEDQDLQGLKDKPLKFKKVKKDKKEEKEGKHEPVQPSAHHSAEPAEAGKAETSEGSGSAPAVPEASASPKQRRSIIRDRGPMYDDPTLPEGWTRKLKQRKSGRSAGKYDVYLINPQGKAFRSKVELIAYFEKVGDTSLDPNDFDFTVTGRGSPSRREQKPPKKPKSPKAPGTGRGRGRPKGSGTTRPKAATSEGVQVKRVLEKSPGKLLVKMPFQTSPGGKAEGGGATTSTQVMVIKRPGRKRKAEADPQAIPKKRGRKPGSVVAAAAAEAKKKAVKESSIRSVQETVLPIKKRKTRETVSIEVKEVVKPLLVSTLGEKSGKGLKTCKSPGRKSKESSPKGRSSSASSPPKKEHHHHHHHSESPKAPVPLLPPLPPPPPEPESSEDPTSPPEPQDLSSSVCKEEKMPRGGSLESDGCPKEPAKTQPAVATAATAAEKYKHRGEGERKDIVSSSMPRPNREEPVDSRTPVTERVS

B1: human-Pdcd4 mCpG probe (dsDNA)
DNA 1: GCGCATGCGCCCTCCCGCGCCCCTCCCC
DNA 2: GGGGAGGGGCGCGGGAGGGCGCATGCGC
modifications: 5-methyl-dC at CpG, both strands; printed '(5-Methyl dC)CG' read as mCG to match the unmethylated probe
  binding result: binds

B2: human-Pla2g6 mCpG probe (dsDNA)
DNA 1: GCGCATGCGCCCTCCCGCGCCCCTCCCC
DNA 2: GGGGAGGGGCGCGGGAGGGCGCATGCGC
modifications: 5-methyl-dC at CpG, both strands; printed sequence identical to human-Pdcd4 probe (possible error in paper)
  binding result: binds
